Measured values as given in patent US20240261333A1 (published 2024).

T1: IMMT (human, UniProt Q16891-4 34-757, limits assumed)
T1 construct: also called NP_001093639.1 (+3)
T1 sequence (looked up): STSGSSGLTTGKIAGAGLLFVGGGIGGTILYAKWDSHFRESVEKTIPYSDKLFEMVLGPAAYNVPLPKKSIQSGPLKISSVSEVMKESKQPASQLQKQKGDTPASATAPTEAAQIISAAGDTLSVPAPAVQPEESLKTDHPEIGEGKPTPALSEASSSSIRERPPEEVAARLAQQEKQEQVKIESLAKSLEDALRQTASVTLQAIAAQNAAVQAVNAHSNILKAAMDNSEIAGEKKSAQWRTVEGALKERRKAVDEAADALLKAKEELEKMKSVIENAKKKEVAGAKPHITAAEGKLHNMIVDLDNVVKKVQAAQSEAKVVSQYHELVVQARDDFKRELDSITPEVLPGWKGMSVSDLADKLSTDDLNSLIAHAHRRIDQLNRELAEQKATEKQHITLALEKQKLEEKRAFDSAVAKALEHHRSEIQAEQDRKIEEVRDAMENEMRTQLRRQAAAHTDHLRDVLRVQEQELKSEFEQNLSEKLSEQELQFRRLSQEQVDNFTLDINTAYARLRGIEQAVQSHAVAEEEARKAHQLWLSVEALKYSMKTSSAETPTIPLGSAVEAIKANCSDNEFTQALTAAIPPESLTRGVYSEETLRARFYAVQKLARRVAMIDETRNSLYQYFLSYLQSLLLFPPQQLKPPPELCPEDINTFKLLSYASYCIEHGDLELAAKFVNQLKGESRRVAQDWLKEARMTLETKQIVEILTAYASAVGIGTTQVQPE

T2: SPARC (human, UniProt P09486 18-303)
T2 construct: also called NP_001296372.1 (+1)
T2 sequence (looked up): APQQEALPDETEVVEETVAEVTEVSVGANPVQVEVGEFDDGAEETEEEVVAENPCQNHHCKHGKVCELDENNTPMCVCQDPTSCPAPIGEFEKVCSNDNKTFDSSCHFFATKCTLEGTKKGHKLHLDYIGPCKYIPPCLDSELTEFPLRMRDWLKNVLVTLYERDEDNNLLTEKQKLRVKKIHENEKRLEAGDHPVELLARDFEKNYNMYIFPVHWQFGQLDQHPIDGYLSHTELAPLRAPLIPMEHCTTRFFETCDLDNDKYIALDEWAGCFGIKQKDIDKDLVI

T3: CPSF7 (human, UniProt Q8N684 1-471)
T3 construct: also called NP_001129512.1 (+5)
T3 sequence (looked up): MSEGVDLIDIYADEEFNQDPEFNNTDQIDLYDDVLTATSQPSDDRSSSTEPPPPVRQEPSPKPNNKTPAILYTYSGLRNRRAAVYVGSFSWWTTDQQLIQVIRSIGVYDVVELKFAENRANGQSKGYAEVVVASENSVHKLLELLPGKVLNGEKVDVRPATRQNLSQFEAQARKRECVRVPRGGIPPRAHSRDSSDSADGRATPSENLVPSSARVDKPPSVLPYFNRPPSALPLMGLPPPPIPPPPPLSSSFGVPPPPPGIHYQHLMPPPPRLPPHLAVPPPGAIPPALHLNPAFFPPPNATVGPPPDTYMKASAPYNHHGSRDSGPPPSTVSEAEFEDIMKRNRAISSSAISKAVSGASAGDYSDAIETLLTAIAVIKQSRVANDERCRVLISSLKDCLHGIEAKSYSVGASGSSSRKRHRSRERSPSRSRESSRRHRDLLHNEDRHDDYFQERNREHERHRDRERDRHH

T4: SRSF6 (human, UniProt Q13247 1-344)
T4 construct: also called NP_006266.2
T4 sequence (looked up): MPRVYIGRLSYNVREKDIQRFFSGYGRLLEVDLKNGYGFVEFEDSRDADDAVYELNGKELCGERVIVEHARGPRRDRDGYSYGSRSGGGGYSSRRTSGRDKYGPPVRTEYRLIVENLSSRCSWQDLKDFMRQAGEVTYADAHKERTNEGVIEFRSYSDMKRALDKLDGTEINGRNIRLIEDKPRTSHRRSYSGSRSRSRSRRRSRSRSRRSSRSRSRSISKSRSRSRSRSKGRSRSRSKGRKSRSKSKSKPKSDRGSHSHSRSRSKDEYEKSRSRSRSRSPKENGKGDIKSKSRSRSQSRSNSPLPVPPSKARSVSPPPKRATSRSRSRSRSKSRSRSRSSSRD


Legend:
Experiment in all cases: co-IP with anti-FLAG, N-FLAG B3GNT2, mass spectrometry
EIF3A = target: T5, EIF3A (human, UniProt Q14152 2-1382)
T5 construct: also called NP_003741.1
T5 sequence (Q14152 2-1382 limits assumed): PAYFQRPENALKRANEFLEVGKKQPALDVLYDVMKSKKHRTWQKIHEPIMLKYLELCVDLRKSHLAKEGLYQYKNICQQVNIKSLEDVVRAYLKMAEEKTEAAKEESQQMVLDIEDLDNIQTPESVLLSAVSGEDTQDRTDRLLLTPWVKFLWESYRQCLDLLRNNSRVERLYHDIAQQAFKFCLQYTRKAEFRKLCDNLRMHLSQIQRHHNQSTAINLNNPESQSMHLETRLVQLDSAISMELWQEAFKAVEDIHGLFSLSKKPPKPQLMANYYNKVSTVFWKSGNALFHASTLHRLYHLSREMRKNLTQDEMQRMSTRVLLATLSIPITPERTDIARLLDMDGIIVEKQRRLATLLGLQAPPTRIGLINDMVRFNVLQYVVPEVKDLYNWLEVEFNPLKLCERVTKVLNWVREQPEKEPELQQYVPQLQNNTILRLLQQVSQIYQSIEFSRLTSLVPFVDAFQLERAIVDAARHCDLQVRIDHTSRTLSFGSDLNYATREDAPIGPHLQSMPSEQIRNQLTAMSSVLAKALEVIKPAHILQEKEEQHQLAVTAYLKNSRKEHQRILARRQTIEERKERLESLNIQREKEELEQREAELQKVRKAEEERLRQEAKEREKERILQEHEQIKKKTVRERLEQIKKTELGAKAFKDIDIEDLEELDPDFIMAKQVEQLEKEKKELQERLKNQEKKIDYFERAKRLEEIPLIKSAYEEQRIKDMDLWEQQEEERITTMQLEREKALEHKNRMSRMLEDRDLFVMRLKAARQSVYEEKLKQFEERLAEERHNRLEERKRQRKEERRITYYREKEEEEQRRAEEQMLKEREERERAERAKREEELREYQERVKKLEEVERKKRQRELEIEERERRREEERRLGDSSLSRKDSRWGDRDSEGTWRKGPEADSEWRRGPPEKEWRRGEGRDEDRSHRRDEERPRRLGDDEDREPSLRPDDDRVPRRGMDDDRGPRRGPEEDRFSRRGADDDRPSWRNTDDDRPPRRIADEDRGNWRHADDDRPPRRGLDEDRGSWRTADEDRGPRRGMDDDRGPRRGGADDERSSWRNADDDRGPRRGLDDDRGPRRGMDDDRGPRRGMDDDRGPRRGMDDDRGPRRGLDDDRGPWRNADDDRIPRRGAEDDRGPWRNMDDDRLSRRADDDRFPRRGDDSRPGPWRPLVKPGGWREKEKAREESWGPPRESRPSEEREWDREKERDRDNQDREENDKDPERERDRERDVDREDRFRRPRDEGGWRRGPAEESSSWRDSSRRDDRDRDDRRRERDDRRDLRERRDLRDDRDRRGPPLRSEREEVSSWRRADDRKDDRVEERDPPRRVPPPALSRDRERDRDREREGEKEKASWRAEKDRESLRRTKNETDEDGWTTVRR
Method: (§1) Cells were plated in 10-cm cell culture dishes and grown to 60-80% confluency. For each condition, two biological replicates were harvested for co-IP. Cells were washed with PBS and 4 mL of lysis buffer (20 mM HEPES, 1% Triton X-100, 150 mM NaCl, 1 mM EDTA, and 10% glycerol) containing protease inhibitor cocktail was added. Cells were scraped and lysate was incubated at 4° C. under rotary agitation for 1 h. Lysate was centrifuged at 14,000×g for 10 min at 4° C. Supernatant was transferred to a new tube and an aliquot was taken as the input. […] For Western blots, 10 μg/mL Chicken Anti-FLAG (Aves labs ET-DY100) and IgY control (R&D Systems AB-101-C) antibodies were biotinylated (Thermo Fisher Scientific 90407) and added to the respective conditions. Lysates with antibodies were incubated at 4° C. under rotary agitation overnight. For each mL of lysate, 50 μL of Pierce Protein A/G Magnetic Beads (Mass spectrometry; Thermo Fisher Scientific 88803) or Pierce Streptavidin Magnetic Beads (Western blot; Thermo Fisher Scientific 88817) was washed twice with lysis buffer. Lysates with antibodies were added to the beads and incubated at 4° C. under rotary agitation for 4 h. Beads were washed with lysis buffer 3 times and resuspended in lysis buffer for storage.
(§2) Magnetic beads were resuspended in 100 mM Tris pH 7.8, reduced, alkylated and digested with trypsin at 37° ° C. overnight. This solution was subjected to solid phase extraction to concentrate the peptides and remove unwanted reagents followed by injection onto a Shimadzu HPLC with fraction collector. Eight fractions were collected and after concentration were injected on a Waters NanoAcquity HPLC equipped with a self-packed Aeris 3 μm C18 analytical column 0.075 mm by 20 cm, (Phenomenex). Peptides were eluted using standard reverse-phase gradients. The effluent from the column was analyzed using a Thermo Orbitrap Elite mass spectrometer (nanospray configuration) operated in a data dependent manner for 54 minutes. The resulting fragmentation spectra were correlated against the known database using Proteome Discover 1.4 (Thermo Fisher Scientific).

IMMT = target: T1, IMMT
Method: as §1, §2

SPARC = target: T2, SPARC
Method: as §1, §2

CPSF7 = target: T3, CPSF7
Method: as §1, §2

SRSF6 = target: T4, SRSF6
Method: as §1, §2

Row | co-IP mass spectrometry count (EIF3A) | co-IP mass spectrometry count (IMMT) | co-IP/MS count, N-term FLAG (SPARC) | co-IP/MS count, N-term FLAG (CPSF7) | co-IP/MS count, N-term FLAG (SRSF6) | Binder
1 | 2 | 23 | – | – | – | N-terminal FLAG tagged B3GNT2 (enzyme, human, UniProt Q9NY97 1-397, looked up, FLAG-tagged ORF overexpressed in cells; pulled down from lysate with mouse anti-FLAG; also called N-FLAG B3GNT2; N-term FLAG; not shown: N-terminal FLAG tag) MSVGRRRIKLLGILMMANVFIYFIMEVSKSSSQEKNGKGEVIIPKEKFWKISTPPEAYWNREQEKLNRQYNPILSMLTNQTGEAGRLSNISHLNYCEPDLRVTSVVTGFNNLPDRFKDFLLYLRCRNYSLLIDQPDKCAKKPFLLLAIKSLTPHFARRQAIRESWGQESNAGNQTVVRVFLLGQTPPEDNHPDLSDMLKFESEKHQDILMWNYRDTFFNLSLKEVLFLRWVSTSCPDTEFVFKGDDDVFVNTHHILNYLNSLSKTKAKDLFIGDVIHNAGPHRDKKLKYYIPEVVYSGLYPPYAGGGGFLYSGHLALRLYHITDQVHLYPIDDVYTGMCLQKLGLVPEKHKGFRTFDIEEKNKNNICSYVDLMLVHSRKPQEMIDIWSQLQSAHLKC
2 | – | – | 0 | 12 | 6 | N-terminal FLAG tagged B3GNT2 (enzyme, human, UniProt Q9NY97 1-397, looked up, FLAG-tagged ORF overexpressed in A375 cells; pulled down from the lysate with mouse anti-FLAG; also called N-FLAG B3GNT2; N-term FLAG; not shown: N-terminal FLAG tag) MSVGRRRIKLLGILMMANVFIYFIMEVSKSSSQEKNGKGEVIIPKEKFWKISTPPEAYWNREQEKLNRQYNPILSMLTNQTGEAGRLSNISHLNYCEPDLRVTSVVTGFNNLPDRFKDFLLYLRCRNYSLLIDQPDKCAKKPFLLLAIKSLTPHFARRQAIRESWGQESNAGNQTVVRVFLLGQTPPEDNHPDLSDMLKFESEKHQDILMWNYRDTFFNLSLKEVLFLRWVSTSCPDTEFVFKGDDDVFVNTHHILNYLNSLSKTKAKDLFIGDVIHNAGPHRDKKLKYYIPEVVYSGLYPPYAGGGGFLYSGHLALRLYHITDQVHLYPIDDVYTGMCLQKLGLVPEKHKGFRTFDIEEKNKNNICSYVDLMLVHSRKPQEMIDIWSQLQSAHLKC
